Read-outs that look alike come from different tables or passages of the source.
Experiments:
Assay in all cases: AUC
AUC = biological target: the molecule itself
A6NHR9 [1] = biological target: A6NHR9
A6NHR9 [2] = biological target: A6NHR9; remark: listed apart in the source
A6NHR9 [3] = biological target: A6NHR9; remark: listed apart in the source
A6NHR9 [4] = biological target: A6NHR9; remark: listed apart in the source
A6NHR9 [5] = biological target: A6NHR9; remark: listed apart in the source

B1: UBL-containing SMCHD1 ATPase (residues 25–702) (domain or fragment, human, UniProt A6NHR9 25-702, looked up)
chain: HRTVYLFDRREKESELGDRPLQVGERSDYAGFRACVCQTLGISPEEKFVITTTSRKEITCDNFDETVKDGVTLYLLQSVNQLLLTATKERIDFLPHYDTLVKSGMYEYYASEGQNPLPFALAELIDNSLSATSRNIGVRRIQIKLLFDETQGKPAVAVIDNGRGMTSKQLNNWAVYRLSKFTRQGDFESDHSGYVRPVPVPRSLNSDISYFGVGGKQAVFFVGQSARMISKPADSQDVHELVLSKEDFEKKEKNKEAIYSGYIRNRKPSDSVHITNDDERFLHHLIIEEKEKDSFTAVVITGVQPEHIQYLKNYFHLWTRQLAHIYHYYIHGPKGNEIRTSKEVEPFNNIDIEISMFEKGKVPKIVNLREIQDDMQTLYVNTAADSFEFKAHVEGDGVVEGIIRYHPFLYDRETYPDDPCFPSKLKDEDDEDDCFILEKAARGKRPIFECFWNGRLIPYTSVEDFDWCTPPKKRGLAPIECYNRISGALFTNDKFQVSTNKLTFMDLELKLKDKNTLFTRILNGQEQRMKIDREFALWLKDCHEKYDKQIKFTLFKGVITRPDLPSKKQGPWATYAAIEWDGKIYKAGQLVKTIKTLPLFYGSIVRFFLYGDHDGEVYATGGEVQIAMEPQALYDEVRTVPIAKLDRTVAEKAVKKYVEDEMARLPDRLSVTWPEGDE
- stoichiometry N (AUC): 2
- Monomer (%) (A6NHR9 [1]): 76.8%
- Monomer (%) (A6NHR9 [2]): 61.5%
- Monomer (%) (A6NHR9 [3]): 53.4%
- Monomer (%) (A6NHR9 [4]): 57.6%
- Monomer (%) (A6NHR9 [5]): 88.2%

Reference: publication PMC8286825 (Biochemical Journal, 2021)
